The values below are quoted from earlier work in publication PMC5221605.

Usually Kd stands for a measure of binding affinity in units of concentration.

Series [1] has as its target Fibrinogen Aα-chain 561-575 (Homo sapiens) (UniProt P02671).
Series [2] addresses Fibrinogen (Homo sapiens) (UniProt P02671).
Another series has as its target Fibrin (Homo sapiens) (UniProt P02671).

UniProt P02671, sequence (P02671 36-866, chain 1 of 3): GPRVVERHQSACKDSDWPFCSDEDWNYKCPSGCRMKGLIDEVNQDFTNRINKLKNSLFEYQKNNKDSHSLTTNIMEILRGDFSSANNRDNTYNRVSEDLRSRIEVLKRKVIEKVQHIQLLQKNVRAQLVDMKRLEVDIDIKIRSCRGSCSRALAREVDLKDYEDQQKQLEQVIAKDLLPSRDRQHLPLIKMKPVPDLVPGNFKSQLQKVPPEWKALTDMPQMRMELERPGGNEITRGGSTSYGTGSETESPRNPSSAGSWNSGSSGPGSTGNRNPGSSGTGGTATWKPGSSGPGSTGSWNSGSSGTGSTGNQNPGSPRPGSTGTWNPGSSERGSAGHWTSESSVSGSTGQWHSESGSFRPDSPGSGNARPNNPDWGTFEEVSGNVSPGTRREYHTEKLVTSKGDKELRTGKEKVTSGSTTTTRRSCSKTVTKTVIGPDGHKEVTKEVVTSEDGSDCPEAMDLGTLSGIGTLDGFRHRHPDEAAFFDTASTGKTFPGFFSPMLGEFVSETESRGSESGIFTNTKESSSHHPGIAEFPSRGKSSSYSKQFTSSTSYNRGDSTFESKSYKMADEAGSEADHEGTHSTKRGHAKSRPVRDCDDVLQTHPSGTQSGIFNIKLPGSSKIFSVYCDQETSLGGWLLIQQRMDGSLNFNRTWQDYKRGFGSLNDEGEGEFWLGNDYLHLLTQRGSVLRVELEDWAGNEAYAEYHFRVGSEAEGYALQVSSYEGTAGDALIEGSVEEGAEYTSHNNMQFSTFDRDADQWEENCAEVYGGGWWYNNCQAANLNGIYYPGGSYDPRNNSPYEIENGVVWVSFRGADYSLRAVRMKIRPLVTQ
UniProt P02671, sequence (P02675 45-491, chain 2 of 3, further chain): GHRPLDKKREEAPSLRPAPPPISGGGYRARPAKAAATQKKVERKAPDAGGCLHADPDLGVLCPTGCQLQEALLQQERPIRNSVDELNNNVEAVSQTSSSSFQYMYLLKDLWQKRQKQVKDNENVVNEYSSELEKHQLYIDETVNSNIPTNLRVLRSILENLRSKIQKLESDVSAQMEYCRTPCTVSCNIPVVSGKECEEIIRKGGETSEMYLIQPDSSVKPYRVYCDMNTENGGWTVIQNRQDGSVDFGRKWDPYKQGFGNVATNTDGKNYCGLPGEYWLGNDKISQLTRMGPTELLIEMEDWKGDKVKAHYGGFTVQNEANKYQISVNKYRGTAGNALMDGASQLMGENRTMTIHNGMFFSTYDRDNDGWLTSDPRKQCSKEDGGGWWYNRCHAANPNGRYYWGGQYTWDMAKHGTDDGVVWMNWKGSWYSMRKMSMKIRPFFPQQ
UniProt P02671, sequence (P02679 27-453, chain 3 of 3, further chain): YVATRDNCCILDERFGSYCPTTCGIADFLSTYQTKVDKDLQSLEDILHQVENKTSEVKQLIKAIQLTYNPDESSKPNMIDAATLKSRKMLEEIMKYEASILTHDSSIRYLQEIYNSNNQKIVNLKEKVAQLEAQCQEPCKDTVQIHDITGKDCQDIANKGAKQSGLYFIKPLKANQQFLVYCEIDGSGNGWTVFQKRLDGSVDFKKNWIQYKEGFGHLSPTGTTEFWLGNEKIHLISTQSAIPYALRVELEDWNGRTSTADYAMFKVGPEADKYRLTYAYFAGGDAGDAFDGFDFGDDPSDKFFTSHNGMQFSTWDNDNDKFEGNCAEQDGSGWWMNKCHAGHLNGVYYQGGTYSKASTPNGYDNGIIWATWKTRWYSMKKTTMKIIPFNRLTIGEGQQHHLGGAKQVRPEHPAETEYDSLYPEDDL

On to Bbp N2-N3 (from UniProt Q6GJA6), for which the Kd in series [1] is 500 nM. Consider ClfA (from UniProt Q2G015), for which the Kd (in series [2]; with Fibrin (Homo sapiens)) was 500 nM throughout.
